One assay addresses HRGα EGF domain177-241 (UniProt Q02297). As to the kind of experiment: cell-based or functional assay.
Assay [1] addresses T1, HRGβ 1 EGF domain 176-246 (UniProt Q02297-6 176-246, 125I-labelled in the crosslinking experiment (residue not stated)).
T1 sequence (looked up): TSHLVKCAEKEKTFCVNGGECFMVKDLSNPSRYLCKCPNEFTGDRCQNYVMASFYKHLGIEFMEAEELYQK
Kind of assay: cell-based or functional assay.

For the next assay, the target named is ErbB2 (UniProt P04626). As to the kind of experiment: inhibition of 125I-HRGβ177-244 (0.1 nM) binding to T47D cells; 2C4 varied.
Assay [2] has as its target HRGβ177-244 (UniProt Q02297). As to the kind of experiment: 125I-HRGβ177-244 binding to ErbB3-IgG homodimer (positive control), 96-well plate, Scatchard analysis.
Assay [3] concerns the target HRGα EGF domain177-241, Q02297. Kind of assay: cell-based or functional assay.
Assay [4] concerns the target HRGβ177-244 (UniProt Q02297). As to the kind of experiment: inhibition of 125I-HRGβ177-244 (0.1 nM) binding to T47D cells; p85-sErbB3 varied.
The target of assay [5] is HRGβ177-244 (UniProt Q02297). As to the kind of experiment: 125I-HRGβ177-244 binding to immobilized p85-sErbB3, 96-well plate, Scatchard analysis.

In the assay with HRGα EGF domain177-241, “p45-sErbB3 (from UniProt P21860 20-329) (receptor)” registered an inhibition of HRGα-stimulated ErbB3 activation (tyrosine phosphorylation, densitometry) in Ba/F3 (ErbB2+ErbB3) cells, 1 µg/ml HRGα, conditioned medium of 40%. Further, the decrease of ligand-stimulated ErbB3 tyrosine phosphorylation in Ba/F3 (ErbB2+ErbB3) cells, 50 and 100 ng/ml HRGβ, conditioned medium in assay [1] was found to be 60%.

As usually defined, the IC50 is the point on the concentration scale where inhibition reaches its midpoint. Higher therefore signals weaker potency. As to “2C4, a monoclonal antibody specific for the ErbB2 extracellular domain”, the IC50 with ErbB2 was found to be 0.55 nM.

The term Kd denotes the concentration at which binding is half-saturated. Higher therefore signals a looser complex. The molecule “ErbB3-IgG fusion protein (from UniProt P21860 20-643) (Fc fusion)” displayed a Kd with HRGβ177-244 [2] of 4.7 nM. This counts as single-digit nanomolar.

B1: p85-sErbB3, P21860 20-538 (receptor)
chain: SEVGNSQAVCPGTLNGLSVTGDAENQYQTLYKLYERCEVVMGNLEIVLTGHNADLSFLQWIREVTGYVLVAMNEFSTLPLPNLRVVRGTQVYDGKFAIFVMLNYNTNSSHALRQLRLTQLTEILSGGVYIEKNDKLCHMDTIDWRDIVRDRDAEIVVKDNGRSCPPCHEVCKGRCWGPGSEDCQTLTKTICAPQCNGHCFGPNPNQCCHDECAGGCSGPQDTDCFACRHFNDSGACVPRCPQPLVYNKLTFQLEPNPHTKYQYGGVCVASCPHNFVVDQTSCVRACPPDKMEVDKNGLKMCEPCGGLCPKACEGTGSGSRFQTVDSSNIDGFVNCTKILGNLDFLITGLNGDPWHKIPALDPEKLNVFRTVREITGYLNIQSWPPHMHNFSVFSNLTTIGGRSLYNRGFSLLIMKNLNVTSLGFRSLKEISAGRIYISANRQLCYHHSLNWTKVLRGPTEERLDIKHNRPRRDCVAEGKVCDPLCSSGGCWGPGPGQCLSCRNYSRGGVCVTHCNFLNGYSKGSQSRMGGGGALQWNCSGGIQ
modifications: here or on the partner: Secreted glycoprotein (bound to Con A); glycans not carried by the letters.
In assay [3], B1 gave a decrease of HRGα-stimulated ErbB3 activation in Ba/F3 (ErbB2+ErbB3) cells, 2 µg/ml HRGα, conditioned medium of 30% and an inhibition of HRGα-stimulated ErbB3 activation (tyrosine phosphorylation, densitometry) in Ba/F3 (ErbB2+ErbB3) cells, 1 µg/ml HRGα, conditioned medium of 80%.

B2: p85-sErbB3 (receptor)
chain: SEVGNSQAVCPGTLNGLSVTGDAENQYQTLYKLYERCEVVMGNLEIVLTGHNADLSFLQWIREVTGYVLVAMNEFSTLPLPNLRVVRGTQVYDGKFAIFVMLNYNTNSSHALRQLRLTQLTEILSGGVYIEKNDKLCHMDTIDWRDIVRDRDAEIVVKDNGRSCPPCHEVCKGRCWGPGSEDCQTLTKTICAPQCNGHCFGPNPNQCCHDECAGGCSGPQDTDCFACRHFNDSGACVPRCPQPLVYNKLTFQLEPNPHTKYQYGGVCVASCPHNFVVDQTSCVRACPPDKMEVDKNGLKMCEPCGGLCPKACEGTGSGSRFQTVDSSNIDGFVNCTKILGNLDFLITGLNGDPWHKIPALDPEKLNVFRTVREITGYLNIQSWPPHMHNFSVFSNLTTIGGRSLYNRGFSLLIMKNLNVTSLGFRSLKEISAGRIYISANRQLCYHHSLNWTKVLRGPTEERLDIKHNRPRRDCVAEGKVCDPLCSSGGCWGPGPGQCLSCRNYSRGGVCVTHCNFLNGYSKGSQSRMGGGGALQWNCSGGIQ
modifications: Secreted glycoprotein (bound to Con A); glycans not carried by the letters.
For B2, in assay [1], the “inhibition of HRGβ-stimulated MCF7 cell growth, 0.4 nM HRGβ, 40 nM p85-sErbB3 (100-fold molar excess), 5,000 cells/well” value was 75% and the “inhibition of HRGβ-stimulated MCF7 cell growth, 0.4 nM HRGβ, 40 nM p85-sErbB3 (100-fold molar excess), 8,000 cells/well” value amounted to 90%. This molecule also showed an IC50 with HRGβ177-244 [4] of 0.45 nM. The Kd in the assay with HRGβ177-244 [5] is 3 nM.

For the origin of these results see patent US20080267961A1 (published 2008).
